Series [1] concerns the target synthetic peptide representing C-terminus of S6 protein.
Series [2] deals with ribosomal protein S6 (in purified 40S ribosomal subunits from liver).

B1: EE-tag/p70β^S6k (p70β-II isoform, N-terminal EE-tag) (protein)
chain: MAAVFDLDLETEEGSEGEGEPELSPADACPLAELRAAGLEPVGHYEEVELTETSVNVGPERIGPHCFELLRVLGKGGYGKVFQVRKVQGTNLGKIYAMKVLRKAKIVRNAKDTAHTRAERNILESVKHPFIVELAYAFQTGGKLYLILECLSGGELFTHLEREGIFLEDTACFYLAEITLALGHLHSQGIIYRDLKPENIMLSSQGHIKLTDFGLCKESIHEGAVTHTFCGTIEYMAPEILVRSGHNRAVDWWSLGALMYDMLTGSPPFTAENRKKTMDKIIRGKLALPPYLTPDARDLVKKFLKRNPSQRIGGGPGDAADVQRHPFFRHMNWDDLLAWRVDPPFRPCLQSEEDVSQFDTRFTRQTPVDSPDDTALSESANQAFLGFTYVAPSVLDSIKEGFSFQPKLRSPRRLNSSPRVPVSPLKFSPFEGFRPSPSLPEPTELPLPPLLPPPPPSTTAPLPIRPPSGTKKSKRGRGRPGR
Turning to B1, in series [1], the “in vitro kinase reaction: phosphorylation of the synthetic peptide” value is recorded as “p70β^S6k (p70β-II isoform) also phosphorylates this peptide but with slightly lower efficiency than observed with p70α^S6k”. In addition, in series [2], the “in vitro kinase reaction: phosphorylation of S6 protein in 40S subunits” value was “p70β^S6k (p70β-II isoform) phosphorylates the S6 protein in vitro nearly as efficiently as p70α^S6k”.

The values are drawn from patent publication US20050158748.
